# Columns and labels:
# [1] = molecular target: ΔNTPX2 (Xenopus TPX2 with amino acid 1 to 40 deleted, GST tag removed)
# [2] = molecular target: purified wild-type Xenopus TPX2 (GST tag removed)
protein,measurement,setting,value
"Xenopus Aurora A kinase (AurA, also called Eg2), endogenous in egg extracts (protein) MERAVKENHKPSNVKIFHPMTEGAKRIPVNQPQSTQFRPPGTAVSAQRILGPSNVPQRVLAQAQKPILSSQKPTTQIPLRPATQGHQSSKPQGPNENRNPQQTSHSSTPNVEKKGSTDQGKTSAVPKEEGKKKQWCLEDFEIGRPLGKGKFGNVYLARERESKFILALKVLFKSQLEKAGVEHQLRREVEIQSHLRHPNILRLYGYFHDASRVYLILDYAPGGELFRELQKCTRFDDQRSAMYIKQLAEALLYCHSKKVIHRDIKPENLLLGSNGELKIADFGWSVHAPSSRRTTLCGTLDYLPPEMIEGRMHDETVDLWSLGVLCYEFLVGKPPFETDTHQETYRRISKVEFQYPPYVSEEARDLVSKLLKHNPNHRLPLKGVLEHPWIIKNSQLKKKDEPLPGAQ","AurA activation, as determined by autophosphorylation of the activation loop at threonine 295 of AurA with antibody recognizing phospho-T295",[1],AurA activation was either completely lacking or slightly enhanced compared to the TPX2-depleted egg extract
same,"AurA activation, as determined by autophosphorylation of the activation loop at threonine 295 of AurA with antibody recognizing phospho-T295",[2],RanGTP-induced AurA activation in TPX2-depleted egg extracts could be rescued by adding purified wild-type TPX2

# Reference: patent US20070141652
